Target: Full-length human acetylcholinesterase (dimeric, recombinant) (human) (UniProt P22303)
Experiment: SEC-MALS

Full-length human acetylcholinesterase (dimeric, recombinant) (from UniProt P22303 32-614) (enzyme)
stoichiometry N: 2

From PMC4383067
